Measured values reported in patent US20150079112A1 (SAMSUNG ELECTRONICS, published 2015).

Columns and labels:
Test in all cases: ELISA, coated antibody 1000 nM, 250 ng FLAG-tagged mutant Ang2, anti-FLAG-HRP, OD450
[1] = target: T1, mutant Ang2 protein, Y460 substituted with alanine, FLAG-tagged at its N-terminal (human, UniProt O15123 19-496, limits assumed)
T1 sequence: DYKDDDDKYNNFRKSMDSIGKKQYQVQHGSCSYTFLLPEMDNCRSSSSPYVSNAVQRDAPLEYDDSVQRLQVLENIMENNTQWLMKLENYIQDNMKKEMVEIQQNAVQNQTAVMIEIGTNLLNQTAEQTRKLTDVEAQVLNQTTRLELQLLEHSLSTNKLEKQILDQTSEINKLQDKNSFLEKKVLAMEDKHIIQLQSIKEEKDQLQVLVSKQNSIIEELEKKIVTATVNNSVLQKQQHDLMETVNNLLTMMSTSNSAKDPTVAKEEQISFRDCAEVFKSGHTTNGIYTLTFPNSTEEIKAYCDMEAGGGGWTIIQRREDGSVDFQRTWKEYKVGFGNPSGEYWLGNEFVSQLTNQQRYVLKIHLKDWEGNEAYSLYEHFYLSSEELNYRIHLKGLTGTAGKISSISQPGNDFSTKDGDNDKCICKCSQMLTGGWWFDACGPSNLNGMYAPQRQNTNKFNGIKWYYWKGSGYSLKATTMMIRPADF
Method: (§1) Each well of a 96-well MaxiSorp™ flat-bottom plate (Nunc) was coated with 50 ul (microliter) of 1000 nM antibody. Then, the plate was washed five times with 0.05% (v/v) Tween-20-containing PBS (PBST) and blocked with 1% (v/v) BSA-containing PBS at a room temperature for 2 hours. 250 ng of each mutant Ang2 protein obtained by substituting S417, Q418, P419, N421, I434, D448, A449, P452, Y460, N467, K468, or F469 residue of Ang2 protein tagged with a FLAG sequence ([…], Sigma) at its N-terminal with alanine was added to each well of the plate, which was then allowed to react at a room temperature for 2 hours.
(§2) The plate was washed five times with 0.05% (v/v) Tween-20 containing PBS, reacted with an anti-FLAG antibody (SIGMA) conjugated with HRP which was diluted in 1% (v/v) BSA-containing PBS at a ratio of 1:5,000 (v/v) at a room temperature for 1 hour, and washed five times with 0.1% (v/v) Tween-20-containing PBS.
(§3) Finally, 50 ul of TMB substrates (Cell signaling) was added to each well of the plate to induce color development at a room temperature for 3 min. and the reaction was ceased by the addition of 50 ul of Stop solution (Cell signaling) and then, OD450 values were measured on a plate reader (Molecular Devices). By comparing binding affinities with mutated Ang2 to those of unmutated Ang2, each epitope of Ang2 antibodies was identified. The thus obtained measurement results of the binding affinities (%) with mutant Ang2 against the binding affinity with the native Ang2 are shown in the following Table 8.

[2] = target: T2, mutant Ang2 protein, Q418 substituted with alanine, FLAG-tagged at its N-terminal (human, UniProt O15123 19-496, limits assumed)
T2 sequence: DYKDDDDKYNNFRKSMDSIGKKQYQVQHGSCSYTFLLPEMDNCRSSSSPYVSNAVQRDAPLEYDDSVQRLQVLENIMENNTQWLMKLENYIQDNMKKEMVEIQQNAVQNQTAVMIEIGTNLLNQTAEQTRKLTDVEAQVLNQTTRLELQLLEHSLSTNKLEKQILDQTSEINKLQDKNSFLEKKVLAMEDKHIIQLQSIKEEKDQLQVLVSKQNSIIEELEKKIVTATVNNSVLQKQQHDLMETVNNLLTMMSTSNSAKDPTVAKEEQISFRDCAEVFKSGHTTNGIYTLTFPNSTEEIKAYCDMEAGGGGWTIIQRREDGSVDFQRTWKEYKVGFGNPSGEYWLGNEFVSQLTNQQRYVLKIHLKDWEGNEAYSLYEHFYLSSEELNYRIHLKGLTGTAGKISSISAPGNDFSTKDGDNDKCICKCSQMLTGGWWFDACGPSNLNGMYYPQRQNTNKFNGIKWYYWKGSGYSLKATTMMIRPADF
Method: as §1, §2, §3

[3] = target: T3, mutant Ang2 protein, P419 substituted with alanine, FLAG-tagged at its N-terminal (human, UniProt O15123 19-496, limits assumed)
T3 sequence: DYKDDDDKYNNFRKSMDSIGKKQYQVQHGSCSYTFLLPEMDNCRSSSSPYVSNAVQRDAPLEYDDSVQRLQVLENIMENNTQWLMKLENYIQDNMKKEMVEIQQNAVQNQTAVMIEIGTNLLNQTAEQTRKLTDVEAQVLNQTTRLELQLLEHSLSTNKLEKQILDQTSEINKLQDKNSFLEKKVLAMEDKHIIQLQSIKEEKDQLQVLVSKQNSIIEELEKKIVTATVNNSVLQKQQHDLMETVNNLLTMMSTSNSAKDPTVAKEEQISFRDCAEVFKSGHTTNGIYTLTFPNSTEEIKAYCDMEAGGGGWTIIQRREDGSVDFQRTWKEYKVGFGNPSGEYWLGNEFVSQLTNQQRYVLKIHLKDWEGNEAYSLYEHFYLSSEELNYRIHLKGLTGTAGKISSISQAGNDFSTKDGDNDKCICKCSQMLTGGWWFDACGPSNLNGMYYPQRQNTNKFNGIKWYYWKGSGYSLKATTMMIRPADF
Method: as §1, §2, §3

[4] = target: T4, mutant Ang2 protein, K468 substituted with alanine, FLAG-tagged at its N-terminal (human, UniProt O15123 19-496, limits assumed)
T4 sequence: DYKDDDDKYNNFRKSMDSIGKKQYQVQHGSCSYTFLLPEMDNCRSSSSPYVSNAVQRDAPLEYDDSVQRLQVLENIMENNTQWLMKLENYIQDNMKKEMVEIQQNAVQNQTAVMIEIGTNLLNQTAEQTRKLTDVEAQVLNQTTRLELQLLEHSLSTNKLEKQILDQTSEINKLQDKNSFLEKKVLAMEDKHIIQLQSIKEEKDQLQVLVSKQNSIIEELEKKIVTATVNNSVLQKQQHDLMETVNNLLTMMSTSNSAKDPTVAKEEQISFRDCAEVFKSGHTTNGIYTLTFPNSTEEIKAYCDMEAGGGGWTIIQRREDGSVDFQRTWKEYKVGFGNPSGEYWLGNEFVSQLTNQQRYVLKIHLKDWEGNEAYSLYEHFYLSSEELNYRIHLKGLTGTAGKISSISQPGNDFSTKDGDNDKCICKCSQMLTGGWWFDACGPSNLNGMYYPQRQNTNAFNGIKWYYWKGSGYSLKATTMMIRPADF
Method: as §1, §2, §3

B1: SAIT-ANG2-AB-m10D6 (antibody, V domains shown)
VH: DVQLQESGPGLVKPSQSLSLTCTVTGYSITSDYAWNWIRQFPGNKLEWMGYINYSGNTDYNPSLKSRSSITRDTSKNQFFLQLNSVTTGDTATYYCARGNFEGAMDYWGQGTSVTVSS
VL: SIVMTQTPKFLLVSAGDRVTITCKASQSVSNDVAWYQQKPGQSPKLLIYYASNRYPGVPDRFTGSGYGTDFTFTISTVQAEDLAVYFCQQDYSSPWTFGGGTKLEIK
notes: also called antibody 10D6; anti-Ang2 antibody (10D6)
For B1, the “binding affinity (%) with mutant Ang2 against the binding affinity with the native Ang2” value (“binding affinity (%) with mutant Ang2” for short) [1] was 103%, the “binding affinity (%) with mutant Ang2” value [2] was 38.9% and the “binding affinity (%) with mutant Ang2” value [3] was 41.1%. For the same binder, the “binding affinity (%) with mutant Ang2” value [4] was 110%.
